Reference: patent US20210388087A1 (Chugai, published 2021)
Residue numbers refer to the chain shown, from its start. Names and notes keep the numbering of the source.

B1: CE115HA000 A56G one-arm antibody (antibody, human IgG1, kappa, L234A L235A, N297A, name in Kabat numbering)
heavy: QVQLVESGGGVVQPGRSLRLSCAASGFTFSNAWMHWVRQAPGKGLEWVAQIKAKSNNYGTYYAESVKGRFTISRDDSKNSLYLQMNSLKTEDTAVYYCRYVHYGAYYGVDAWGQGTTVTVSSASTKGPSVFPLAPSSKSTSGGTAALGCLVKDYFPEPVTVSWNSGALTSGVHTFPAVLQSSGLYSLSSVVTVPSSSLGTQTYICNVNHKPSNTKVDKKVEPKSCDKTHTCPPCPAPEAAGGPSVFLFPPKPKDTLMISRTPEVTCVVVDVSHEDPEVKFNWYVDGVEVHNAKTKPREEQYASTYRVVSVLTVLHQDWLNGKEYKCKVSNKALPAPIEKTISKAKGQPREPQVYTLPPSRCELTKNQVSLSCAVKGFYPSDIAVEWESNGQPENNYKTTPPVLDSDGSFFLVSKLTVDKSRWQQGNVFSCSVMHEALHNHYTQKSLSLSPDYKDDDDK
chain: EPKSSDKTHTCPPCPAPELLGGPSVFLFPPKPKDTLMISRTPEVTCVVVDVSHEDPEVKFNWYVDGVEVHNAKTKPREEQYNSTYRVVSVLTVLHQDWLNGKEYKCKVSNKALPAPIEKTISKAKGQPREPQVCTLPPSRDELTKNQVSLWCLVKGFYPSDIAVEWESNGQPENNYKTTPPVLDSDGSFFLYSKLTVDKSRWQQGNVFSCSVMHEALHNRYTQKSLSLSP
light: DIVMTQSPLSLPVTPGEPASISCRSSQSLVHSNRNTYLHWYQQKPGQAPRLLIYKVSNRFSGVPDRFSGSGSGTDFTLKISRVEAEDVGVYYCGQGTQVPYTFGQGTKLEIKRTVAAPSVFIFPPSDEQLKSGTASVVCLLNNFYPREAKVQWKVDNALQSGNSQESVTEQDSKDSTYSLSSTLTLSKADYEKHKVYACEVTHQGLSSPVTKSFNRGEC
B2: CE115HA000 A56K one-arm antibody (antibody, human IgG1, kappa, L234A L235A, N297A, name in Kabat numbering)
heavy: B1 heavy with G59K
chain: B1 chain
light: B1 light
B3: CE115HA000 A56L one-arm antibody (antibody, human IgG1, kappa, L234A L235A, N297A, name in Kabat numbering)
heavy: B1 heavy with G59L
chain: B1 chain
light: B1 light
B4: CE115HA000 A56N one-arm antibody (antibody, human IgG1, kappa, L234A L235A, N297A, name in Kabat numbering)
heavy: B1 heavy with G59N
chain: B1 chain
light: B1 light
B5: CE115HA000 A56Q one-arm antibody (antibody, human IgG1, kappa, L234A L235A, N297A, name in Kabat numbering)
heavy: B1 heavy with G59Q
chain: B1 chain
light: B1 light
B6: CE115HA000 A56Y one-arm antibody (antibody, human IgG1, kappa, L234A L235A, N297A, name in Kabat numbering)
heavy: B1 heavy with G59Y
chain: B1 chain
light: B1 light
B7: CE115HA000 A60D one-arm antibody (antibody, human IgG1, kappa, L234A L235A, N297A, name in Kabat numbering)
heavy: B1 heavy with G59A, A63D
chain: B1 chain
light: B1 light
B8: CE115HA000 A60E one-arm antibody (antibody, human IgG1, kappa, L234A L235A, N297A, name in Kabat numbering)
heavy: B1 heavy with G59A, A63E
chain: B1 chain
light: B1 light
B9: CE115HA000 A99D one-arm antibody (antibody, human IgG1, kappa, L234A L235A, N297A, name in Kabat numbering)
heavy: B1 heavy with G59A, A105D
chain: B1 chain
light: B1 light
B10: CE115HA000 A99F one-arm antibody (antibody, human IgG1, kappa, L234A L235A, N297A, name in Kabat numbering)
heavy: B1 heavy with G59A, A105F
chain: B1 chain
light: B1 light
B11: CE115HA000 A99K one-arm antibody (antibody, human IgG1, kappa, L234A L235A, N297A, name in Kabat numbering)
heavy: B1 heavy with G59A, A105K
chain: B1 chain
light: B1 light
B12: CE115HA000 A99L one-arm antibody (antibody, human IgG1, kappa, L234A L235A, N297A, name in Kabat numbering)
heavy: B1 heavy with G59A, A105L
chain: B1 chain
light: B1 light
B13: CE115HA000 A99Q one-arm antibody (antibody, human IgG1, kappa, L234A L235A, N297A, name in Kabat numbering)
heavy: B1 heavy with G59A, A105Q
chain: B1 chain
light: B1 light
B14: CE115HA000 A99S one-arm antibody (antibody, human IgG1, kappa, L234A L235A, N297A, name in Kabat numbering)
heavy: B1 heavy with G59A, A105S
chain: B1 chain
light: B1 light
B15: CE115HA000 A99T one-arm antibody (antibody, human IgG1, kappa, L234A L235A, N297A, name in Kabat numbering)
heavy: B1 heavy with G59A, A105T
chain: B1 chain
light: B1 light
B16: CE115HA000 A99Y one-arm antibody (antibody, human IgG1, kappa, L234A L235A, N297A, name in Kabat numbering)
heavy: B1 heavy with G59A, A105Y
chain: B1 chain
light: B1 light
B17: CE115HA000 A102I one-arm antibody (antibody, human IgG1, kappa, L234A L235A, N297A, name in Kabat numbering)
heavy: B1 heavy with G59A, A111I
chain: B1 chain
light: B1 light
B18: CE115HA000 A102P one-arm antibody (antibody, human IgG1, kappa, L234A L235A, N297A, name in Kabat numbering)
heavy: B1 heavy with G59A, A111P
chain: B1 chain
light: B1 light
B19: CE115HA000 A102V one-arm antibody (antibody, human IgG1, kappa, L234A L235A, N297A, name in Kabat numbering)
heavy: B1 heavy with G59A, A111V
chain: B1 chain
light: B1 light
B20: CE115HA000 A102Y one-arm antibody (antibody, human IgG1, kappa, L234A L235A, N297A, name in Kabat numbering)
heavy: B1 heavy with G59A, A111Y
chain: B1 chain
light: B1 light
B21: CE115HA000 D72A one-arm antibody (antibody, human IgG1, kappa, L234A L235A, N297A, name in Kabat numbering)
heavy: B1 heavy with G59A, D75A
chain: B1 chain
light: B1 light
B22: CE115HA000 D72E one-arm antibody (antibody, human IgG1, kappa, L234A L235A, N297A, name in Kabat numbering)
heavy: B1 heavy with G59A, D75E
chain: B1 chain
light: B1 light
B23: CE115HA000 D72V one-arm antibody (antibody, human IgG1, kappa, L234A L235A, N297A, name in Kabat numbering)
heavy: B1 heavy with G59A, D75V
chain: B1 chain
light: B1 light
B24: CE115HA000 D73A one-arm antibody (antibody, human IgG1, kappa, L234A L235A, N297A, name in Kabat numbering)
heavy: B1 heavy with G59A, D76A
chain: B1 chain
light: B1 light
B25: CE115HA000 D73E one-arm antibody (antibody, human IgG1, kappa, L234A L235A, N297A, name in Kabat numbering)
heavy: B1 heavy with G59A, D76E
chain: B1 chain
light: B1 light
B26: CE115HA000 D73G one-arm antibody (antibody, human IgG1, kappa, L234A L235A, N297A, name in Kabat numbering)
heavy: B1 heavy with G59A, D76G
chain: B1 chain
light: B1 light
B27: CE115HA000 D73K one-arm antibody (antibody, human IgG1, kappa, L234A L235A, N297A, name in Kabat numbering)
heavy: B1 heavy with G59A, D76K
chain: B1 chain
light: B1 light
B28: CE115HA000 D73N one-arm antibody (antibody, human IgG1, kappa, L234A L235A, N297A, name in Kabat numbering)
heavy: B1 heavy with G59A, D76N
chain: B1 chain
light: B1 light
B29: CE115HA000 D73R one-arm antibody (antibody, human IgG1, kappa, L234A L235A, N297A, name in Kabat numbering)
heavy: B1 heavy with G59A, D76R
chain: B1 chain
light: B1 light
B30: CE115HA000 D73T one-arm antibody (antibody, human IgG1, kappa, L234A L235A, N297A, name in Kabat numbering)
heavy: B1 heavy with G59A, D76T
chain: B1 chain
light: B1 light
B31: CE115HA000 D101A one-arm antibody (antibody, human IgG1, kappa, L234A L235A, N297A, name in Kabat numbering)
heavy: B1 heavy with G59A, D110A
chain: B1 chain
light: B1 light
B32: CE115HA000 D101F one-arm antibody (antibody, human IgG1, kappa, L234A L235A, N297A, name in Kabat numbering)
heavy: B1 heavy with G59A, D110F
chain: B1 chain
light: B1 light
B33: CE115HA000 D101G one-arm antibody (antibody, human IgG1, kappa, L234A L235A, N297A, name in Kabat numbering)
heavy: B1 heavy with G59A, D110G
chain: B1 chain
light: B1 light

The binders below were run against T1, CD3 epsilon homodimer protein (UniProt P07766 23-126) (assay: SPR (Biacore T200), CD3 epsilon homodimer on CM4 chip, one-arm antibody as analyte, 25 C;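 note: homodimer attached to the sensor surface via amine coupling, HBS-EP+ used as running buffer during binding runs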).
T1 construct: immobilized on Sensor chip CM4 by amine coupling; also called CD3 (CD3 epsilon)
T1 sequence (P07766 23-126): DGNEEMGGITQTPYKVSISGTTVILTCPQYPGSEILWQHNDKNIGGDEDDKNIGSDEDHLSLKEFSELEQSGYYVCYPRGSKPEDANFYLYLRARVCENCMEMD
Procedure: An appropriate amount of CD3 epsilon homodimer protein was immobilized onto Sensor chip CM4 (GE Healthcare Japan Corp.) by the amine coupling method. Then, the antibody having an appropriate concentration was injected thereto as an analyte and allowed to interact with the CD3 epsilon homodimer protein on the sensor chip. Then, the sensor chip was regenerated by the injection of 10 mmol/L glycine-HCl (pH 1.5). The assay was conducted at 25 degrees C., and HBS-EP+(GE Healthcare Japan Corp.) was used as a running buffer. […] Each parameter was calculated using Biacore T200 Evaluation Software (GE Healthcare Japan Corp.).

Row | ratio of amounts bound (altered form / CE115HA000) | Binder
1 | 0.61 | B1
2 | 1.35 | B2
3 | 0.8 | B3
4 | 0.87 | B4
5 | 0.76 | B5
6 | 0.66 | B6
7 | 0.99 | B7
8 | 0.94 | B8
9 | 0.28 | B9
10 | 1.43 | B10
11 | 1.48 | B11
12 | 1.13 | B12
13 | 0.91 | B13
14 | 0.82 | B14
15 | 0.84 | B15
16 | 1.59 | B16
17 | 1.48 | B17

Row | ratio of amounts bound (altered form / CE115HA000) | Binder
18 | 0.14 | B18
19 | 1.43 | B19
20 | 0.91 | B20
21 | 1.41 | B21
22 | 1.05 | B22
23 | 1.43 | B23
24 | 0.83 | B24
25 | 0.73 | B25
26 | 1.07 | B26
27 | 0.87 | B27
28 | 0.94 | B28
29 | 1.04 | B29
30 | 0.63 | B30
31 | 1.26 | B31
32 | 0.75 | B32
33 | 1.38 | B33
